In patent US20230212319A1, “NOVEL ANTIGEN BINDING DOMAINS AND SYNTHETIC ANTIGEN RECEPTORS INCORPORATING THE SAME” (University of Southern California, priority 2020, published 2023):

Tests used:
[1] = tested on: Daudi cells expressing luciferase; experiment: Daudi-luciferase i.p. model in NSG mice, CD16 SAR-T plus rituximab; assay type: in vivo; details: rituximab plus 1 × 10^7 SAR-T cells, IL-2, NSG mice
Protocol: Use of universal SAR-T cells expressing CD16 as the antigen binding domain. Daudi cells expressing luciferase are injected intraperitoneally (i.p.; 0.3 × 10^6 cells/mouse) in NSG mice (Jackson Laboratory). Some mice receive rituximab ([…]) i.p. Human T cells (1 × 10^7) expressing CD8SP-hu-mROO5-1-vL-[hTCRb-S57C]-F-P2A-IgSP-Apa-CD16-V158-v2-G4Sx3v2-hu-mROO5-1-vH-[hTCRa-T48C] (SEQ ID NO: 4725) SAR are injected four days after Daudi inoculation. Control mice receive tissue culture medium instead of rituximab or T cells. Rituximab injection is repeated weekly for 4 weeks, with no further T lymphocyte injection. All mice receive intraperitoneal injections of 1,000-2,000 IU of IL-2 twice a week for 4 weeks.

RAJI-CD19-KO cells = experiment: JNG assay, co-culture with RAJI-CD19-KO cells; assay type: cell-based; details: co-culture with Raji-CD19-KO
In short: (§1)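 Jurkat NFAT-GFP (JNG) cells stably transduced with SARs by lentivirus, with drug selection where the construct carried a resistance gene, then co-cultured with target cells at E:T ~1:2 for ~4–18 h. % GFP-positive cells measured by FACS against parental JNG; +/- to 5+ correspond to ~5–50% GFP-positive.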

L363 cells = experiment: JNG assay, co-culture with L363 cells; assay type: cell-based; details: co-culture with L363
In short: as §1

RS;411 = experiment: JNG assay, co-culture with RS;411 cells; assay type: cell-based; details: co-culture with RS411
In short: as §1

RAJI cells = experiment: JNG assay, co-culture with RAJI cells; assay type: cell-based; details: JNG cells expressing construct, co-culture with Raji
In short: as §1

L363-CD38-KO = experiment: JNG NFAT-GFP assay, co-culture with L363-CD38-KO cells; assay type: cell-based
U-87 MG = experiment: JNG NFAT-GFP assay, co-culture with U-87 MG cells; assay type: cell-based

B1: 4725 (protein)
chain: MALPVTALLLPLALLLHAARPDIQMTQSPSSLSASVGDRVTITCKASDHINNWLAWYQQKPGQAPKLLIYGATTLETGVPSRFSGSGSGTDYTLTISSLQPEDFATYYCQQSWNTPWTFGQGTKLEIKRLEDLKNVFPPEVAVFEPSEAEISHTQKATLVCLATGFYPDHVELSWWVNGKEVHSGVCTDPQPLKEQPALNDSRYCLSSRLRVSATFWQNPRNHFRCQVQFYGLSENDEWTQDRAKPVTQIVSAEAWGRADCGFTSESYQQGVLSATILYEILLGKATLYAVLVSALVLMAMVKRKDSRGRAKRSGSGATNFSLLKQAGDVEENPGPTSMDWIWRILFLVGAATGAHSGPQVQLQESGGGLAQAGGSLRLSCAASGRTFSMGWFRQAPGKEREFVAAITYSGGSPYYASSVRGRFTISRDNAKNTVYLQMNSLKPEDTAVYYCAANPTYGSDWNAENWGQGTQVTVSSGSGGGGSGGGGSGGGGSFEQVQLQQPGAELVKPGASVKMSCKASGYAFSSYWINWMKQKPGQGLEWIGQIYPGDGDTNYNGKFKGRATLTADTSSSTAYMQLSSLTSEDSAVYFCARSITTVVGCAMDYWGQGTSVTVSSTRIQNPDPAVYQLRDSKSSDKSVCLFTDFDSQTNVSQSKDSDVYITDKCVLDMRSMDFKSNSAVAWSNKSDFACANAFNNSIIPEDTFFPSPESSCDVKLVEKSFETDTNLNFQNLSVIGFRILLLKVAGFNLLMTLRLWSSRAKRSGSGVKQTLNFDLLKLAGDVESNPGPSRGHMTEYKPTVRLATRDDVPRAVRTLAAAFADYPATRHTVDPDRHIERVTELQELFLTRVGLDIGKVWVADDGAAVAVWTTPESVEAGAVFAEIGPRMAELSGSRLAAQQQMEGLLAPHRPKEPAWFLATVGVSPDHQGKGLGSAVVLPGVEAAERAGVPAFLETSAPRNLPFYERLGFTVTADVEVPEGPRTWCMTRKPGA
modifications: Synthetic Polynucloetide
- tumor growth, Daudi-luciferase i.p. [1]: reduced tumor growth

B2: 22128 (protein)
chain: MALPVTALLLPLALLLHAARPQVQLVESGGGLVQPGGSLRLSCAASGFTFTNHAMSWVRQAPGKGLELVSSISGNGRTTYYADSVKGRFTISRDISKNTLDLQMNSLRAEDTAVYYCAKDGGETLVDSRGQGTLVTVSSLEGGGGSGGGGSIEGGGGSGGGGSKVQLLESGGGLVQPGGSLRLSCAASGFIFSSYAMSWVRQAPGKGQEWVSGVSGTGVNTYYADSVKGRFTISRDNSKNTLYLQMNSLRAEDTAVYYCASGKGWDSGSWYEDYRGQGTLVTVSSGTGGGGSGGGGSGGGGSEFDIQMTQSPSSLSASVGDRVTITCKASDHINNWLAWYQQKPGQAPKLLIYGATTLETGVPSRFSGSGSGTDYTLTISSLQPEDFATYYCQQSWNTPWTFGQGTKLEIKRLEDLKNVFPPEVAVFEPSEAEISHTQKATLVCLATGFYPDHVELSWWVNGKEVHSGVCTDPQPLKEQPALNDSRYCLSSRLRVSATFWQNPRNHFRCQVQFYGLSENDEWTQDRAKPVTQIVSAEAWGRADCGFTSESYQQGVLSATILYEILLGKATLYAVLVSALVLMAMVKRKDSRGRAKRSGSGATNFSLLKQAGDVEENPGPTSMDWIWRILFLVGAATGAHSFEQVQLQQPGAELVKPGASVKMSCKASGYAFSSYWINWMKQKPGQGLEWIGQIYPGDGDTNYNGKFKGRATLTADTSSSTAYMQLSSLTSEDSAVYFCARSITTVVGCAMDYWGQGTSVTVSSTRIQNPDPAVYQLRDSKSSDKSVCLFTDFDSQTNVSQSKDSDVYITDKCVLDMRSMDFKSNSAVAWSNKSDFACANAFNNSIIPEDTFFPSPESSCDVKLVEKSFETDTNLNFQNLSVIGFRILLLKVAGFNLLMTLRLWSSRAKRSGSGVKQTLNFDLLKLAGDVESNPGPSRAHMTEYKPTVRLATRDDVPRAVRTLAAAFADYPATRHTVDPDRHIERVTELQELFLTRVGLDIGKVWVADDGAAVAVWTTPESVEAGAVFAEIGPRMAELSGSRLAAQQQMEGLLAPHRPKEPAWFLATVGVSPDHQGKGLGSAVVLPGVEAAERAGVPAFLETSAPRNLPFYERLGFTVTADVEVPEGPRTWCMTRKPGA
- NFAT-GFP ASSAY: Raji-CD19-KO (RAJI-CD19-KO cells): 2+ (refer to approximately 5%, 10%, 20%, 30%, 40% and 50% GFP positive cells)
- NFAT-GFP ASSAY: L363 (L363 cells): 2+ (refer to approximately 5%, 10%, 20%, 30%, 40% and 50% GFP positive cells)
- NFAT-GFP ASSAY: RS411 (RS;411): 2+ (refer to approximately 5%, 10%, 20%, 30%, 40% and 50% GFP positive cells)
- NFAT-GFP ASSAY: Raji (RAJI cells): 3+ (refer to approximately 5%, 10%, 20%, 30%, 40% and 50% GFP positive cells)
- NFAT-GFP ASSAY: L363-CD38-KO (L363-CD38-KO): 2+ (refer to approximately 5%, 10%, 20%, 30%, 40% and 50% GFP positive cells)

B3: 22169 (protein)
chain: MALPVTALLLPLALLLHAARPEVQLVESGGGLVQPGGSLRLSCAASGFASDYYIIGWFRQAPGKEREGVSCISSRYANTNYADSVKGRFTISRDNAKNTVYLQMNSLKPEDTAVYYCAADTRRYTCPDIATMHRNFDSWGQGTLVTVSSGTGGGGSGGGGSGGGGSEFDIQMTQSPSSLSASVGDRVTITCKASDHINNWLAWYQQKPGQAPKLLIYGATTLETGVPSRFSGSGSGTDYTLTISSLQPEDFATYYCQQSWNTPWTFGQGTKLEIKRLEIQNPDPAVYQLRDSKSSDKSVCLFTDFDSQTNVSQSKDSDVYITDKCVLDMRSMDFKSNSAVAWSNKSDFACANAFNNSIIPEDTFFPSSDVPCDVKLVEKSFETDTNLNFQNLSVIGFRILLLKVAGFNLLMTLRLWSSRAKRSGSGVKQTLNFDLLKLAGDVESNPGPTSATMDWIWRILFLVGAATGAHSGPQVQLQESGGGLAQAGGSLRLSCAASGRTFSMGWFRQAPGKEREFVAAITYSGGSPYYASSVRGRFTISRDNAKNTVYLQMNSLKPEDTAVYYCAANPTYGSDWNAENWGQGTQVTVSSGSGGGGSGGGGSGGGGSFEQVQLQQPGAELVKPGASVKMSCKASGYAFSSYWINWMKQKPGQGLEWIGQIYPGDGDTNYNGKFKGRATLTADTSSSTAYMQLSSLTSEDSAVYFCARSITTVVGCAMDYWGQGTSVTVSSTREDLKNVFPPEVAVFEPSKAEIAHTQKATLVCLATGFYPDHVELSWWVNGKEVHSGVCTDPQPLKEQPALNDSRYCLSSRLRVSATFWQNPRNHFRCQVQFYGLSENDEWTQDRAKPVTQIVSAEAWGRADCGITSASYHQGVLSATILYEILLGKATLYAVLVSALVLMAMVKRKDSRGRAKRSGSGATNFSLLKQAGDVEENPGPSRGHMTEYKPTVRLATRDDVPRAVRTLAAAFADYPATRHTVDPDRHIERVTELQELFLTRVGLDIGKVWVADDGAAVAVWTTPESVEAGAVFAEIGPRMAELSGSRLAAQQQMEGLLAPHRPKEPAWFLATVGVSPDHQGKGLGSAVVLPGVEAAERAGVPAFLETSAPRNLPFYERLGFTVTADVEVPEGPRTWCMTRKPGA
- NFAT-GFP ASSAY: Raji-CD19-KO (RAJI-CD19-KO cells): 4+ (refer to approximately 5%, 10%, 20%, 30%, 40% and 50% GFP positive cells)
- NFAT-GFP ASSAY: RS411 (RS;411): 2+ (refer to approximately 5%, 10%, 20%, 30%, 40% and 50% GFP positive cells)
- NFAT-GFP ASSAY: U-87 MG (U-87 MG): 3+ (refer to approximately 5%, 10%, 20%, 30%, 40% and 50% GFP positive cells)
- NFAT-GFP ASSAY: Raji (RAJI cells): 3+ (refer to approximately 5%, 10%, 20%, 30%, 40% and 50% GFP positive cells)
